From PMC11697113, “The Hsc70 system maintains the synaptic SNARE protein SNAP-25 in an assembly-competent state and delays its aggregation [drawing 1]” (The Journal of Biological Chemistry, 2024)

Assays:
Hsc70 [1] = target: T1, Hsc70 (Homo sapiens, UniProt P11142); test: ATPase activity of Hsc70 (malachite green); assay type: biochemical; settings: no peptide; "usually about"
T1 construct: 6X His-tag (TEV-cleavable) (cleaved yes); made in house; host or cells: E. coli Rosetta (DE3)
Text: Hsp70s consist of an nucleotide-binding domain (NBD) and a substrate-binding domain (SBD). Hsc70 works using an allosteric mechanism whereby substrate binding at the SBD stimulates the ATP hydrolysis rate at the nucleotide-binding domain. The basal ATPase rate of Hsp70 is low, usually about 0.05 ± 0.009 mol Pi/mol protein, and increases when it is stimulated by binding of a peptide to the canonical site in the SBD. We measured the ability of SNAP-25 peptides SNNP and SNCP to stimulate the ATPase rate of Hsc70 (Fig. 5A). SNNP and SNCP binding cause a 1.5-fold increase of the Hsc70 ATPase rate over basal (observed rates upon addition of SNNP and SNCP were 0.089 ± 0.008 and 0.080 ± 0.005, respectively). In order to confirm that peptides are indeed binding at the canonical binding site of Hsc70, we used the V438F mutant that blocks the binding site ([37]). […] The addition of CSPαJ stimulates the ATPase activity of Hsc70 ∼4-fold with and without peptides.
Figure 5 SNN and SNC peptides interact with the canonical substrate-binding site of Hsc70.A, ATPase activity of Hsc70 (2 μM) in the absence (gray) and presence of 200 μM SNNP (orange) and SNCP (green) peptides. Error bars represent the SDs from three independent experiments. B, binding of SNAP-25 (black), SNNP (orange), LoopP (blue), and SNCP (green) peptides to Hsc70 followed by competition for FITC-p5 peptide using fluorescence anisotropy. Increasing concentrations of the competitors were added to a complex of Hsc70 (5 μM) and FITC-p5 peptide (50 nM). Error bars represent SDs from three independent experiments. […]
We performed ATPase assays to observe the activity of Hsc70 in the presence of SNAP25 peptides. […] Absorbance readings were taken at 620 nm using a BioTek plate reader. […]
(C) ATPase activity of Hsc70 (at 2 μM) in the absence (grey) and presence of 200 μM SNNP (orange) and L(Loop)-SNCP (green) peptides, and in the absence and presence of CSPa-J and CSPa-J/Apg2. The statistical significance was calculated using one-way ANOVA test with Sidak’s multiple comparison and the Hsc70 ATPase activity […]

Hsc70 [2] = target: T1, Hsc70; test: Competition binding vs FITC-p5 by fluorescence anisotropy; settings: Hsc70 5 μM, FITC-p5 50 nM, competitor 0 to 200 μM, phosphate buffer pH 7.4, overnight 4 °C, fluorescence anisotropy 485/516 nm, three independent experiments
Protocol: Figure 3 Hsc70 forms complexes with SNAP-25.A, native PAGE of SNAP-25 (10 μM) in the presence and absence of Hsc70 (2 μM). The difference in signal intensity of His-SNAP25 probed with antibody is likely due to altered epitope exposure upon formation of the SNAP-25-Hsc70 complex. B, binding of SNAP-25 (black), SNAP-25 SNN (SNNFR, orange), and SNC (SNCFR, green)) fragments to Hsc70 by competition followed by fluorescence anisotropy. Increasing concentrations of the competitors were added to a complex of Hsc70 (5 μM) and FITC-p5 peptide (50 nM). Error bars represent SDs from three independent experiments.
To pin down the regions in SNAP-25 where Hsc70 binds we expressed the individual SNN and SNC fragments of SNAP-25 and tested their ability to compete for Hsc70 binding to an FITC-labeled p5 peptide (ALLLSAPRR).
Figure 5 SNN and SNC peptides interact with the canonical substrate-binding site of Hsc70.A, ATPase activity of Hsc70 (2 μM) in the absence (gray) and presence of 200 μM SNNP (orange) and SNCP (green) peptides. Error bars represent the SDs from three independent experiments. B, binding of SNAP-25 (black), SNNP (orange), LoopP (blue), and SNCP (green) peptides to Hsc70 followed by competition for FITC-p5 peptide using fluorescence anisotropy. Increasing concentrations of the competitors were added to a complex of Hsc70 (5 μM) and FITC-p5 peptide (50 nM). Error bars represent SDs from three independent experiments. C, structure of the canonical substrate-binding site of human HspA1 (PDB 4po2) illustrating the location of Hsc70 residues Ile 403 and Ile 440 in red and green spheres, respectively (N.B., Hsc70 and HspA1 share […] sequence identity). The SBD is shown in gray, bound substrate in cyan sticks, and the side chain of the residue occupying the 0th position in the chaperone (“anchor residue”) in orange ball and sticks. For better visualization of the substrate-binding site, residues 512 to 613, 405 to 408, and 431 were removed in this illustration of the structure. D, the Ile region of the ^1H-^13 C HMQC spectra of Ile-^13CH3-labeled Hsc70 (40 μM) in the absence (black) and in the presence of unlabeled SNNP (orange) and SNCP (green) peptides (200 μM).
To further characterize the binding of the SNAP-25 peptides to Hsc70 we used competition assays as above. Peptides SNNP, LOOPP, and SNCP were titrated against the protein-peptide complex of Hsc70 and FITC-p5 and fluorescence anisotropy was monitored to assess how well the SNAP-25 peptides displaced the model peptide.
Direct binding between the p5 peptide (QSRLLLSAPRRAA) and Hsc70 was carried out as described previously ([52]). […] Fluorescence anisotropy was measured in a BioTek plate reader (BioTek) with excitation at 485 nm and emission at 516 nm.
The measured anisotropy values were converted to fraction bound (fb) using the equation: fb=(r−r0)/(rb−r0) where r is the anisotropy value at any point, r0 is the anisotropy value of FITC-p5 in the absence of Hsc70, and rb is the anisotropy value of FITC-p5 when fully bound to Hsc70. […]
For competition assays, the concentrations of Hsc70 and FITC-P5 were kept constant at 5 μM and 50 nM, respectively, and the competitor substrate was titrated from 0 to 200 μM in phosphate buffer. […] Fluorescent anisotropy was measured as described above. […]

[3] = SNAP-25 aggregation kinetics by optical density; assay type: biochemical; settings: without SNAP-25, 37 °C
Protocol: (§1) To test our hypothesis that Hsc70 inhibits SNAP-25 aggregation, we monitored the aggregation kinetics of recombinantly expressed SNAP-25 in the absence and presence of Hsc70 by following optical density at 360 nm (Fig. 2). […] This lag time was elongated to ∼65 h in the presence of Hsc70. In neurons, Hsc70 works in collaboration with its co-chaperone CSPα. […] (Fig. S2A). Apg2 is a member of the Hsp110 family, which is known to suppress protein aggregation ([36]). […] (Fig. S2B).
(§2) Figure 2 Hsc70 delays the aggregation of SNAP-25. Aggregation kinetics of SNAP-25 (50 μM) at 37 °C. Optical density of SNAP-25 was recorded at 360 nm in the absence (black) and in the presence of Hsc70 (5 μM, red), and Hsc70+CSPαJ (5 μM each, blue).
(§3) Aggregation of SNAP-25 at 50 μM was followed by measuring the A360 in a 96-well plate using a BioTek plate reader (BioTek), at 37 °C with shaking at 300 rpm, in the absence and presence of Hsc70 and CSPαJ at 5 μM each, and Apg2 at 0.5 μM. The aggregation buffer included 20 mM phosphate buffer pH 7.4, 100 μM MgCl2, and 100 mM KCl, and an ATP-experiment was carried out using regeneration system (5 mM 2-phosphoenolpyruvate, 0.05 mg/ml pyruvate kinase, and 5 mM ATP), as described previously ([51]).
(§4) Figure SI 2. Apg2 enhances the effect of Hsc70 on SNAP-25. (A) Aggregation kinetics of SNAP-25 (50 μM) at 37 °C. OD600 of SNAP-25 was recorded in the absence (black) and in the presence of Hsc70, Hsc70+CSPa-J (blue) and Hsc70+CSPa-J+Apg2 (turquoise). […]
(§5) concentrations are SNAP-25 (50 μM), Hsc70 (5 μM), CSPa-J (5 μM) and Apg2 (0.5 μM).
(§6) (B) Aggregation kinetics of SNAP-25 (50 μM) at 37 °C. OD600 of SNAP-25 was recorded in the absence (black) and in the presence of Apg2 (blue). […]

SNAP-25 [4] = test: SNAP-25 aggregation kinetics by optical density; assay type: biochemical; settings: SNAP-25 50 μM, Hsc70 5 μM, 37 °C, shaking 300 rpm, OD 360 nm, 20 mM phosphate buffer pH 7.4, 100 μM MgCl2, 100 mM KCl
Protocol: as §1, §2, §3, §4, §5, §6

[5] = system: SNARE complex with syntaxin and synaptobrevin; test: SDS-resistant SNARE complex formation (SDS-PAGE); assay type: biochemical; settings: with Hsc70, mixed with syntaxin and synaptobrevin, 1 M NaCl, 4 °C
Protocol: We took aliquots of SNAP-25 at different time points of the aggregation reaction (at 0 h, in lag phase and at 64 h in the log or saturation phase, Fig. 2A) and mixed them with the SNARE motifs of syntaxin and synaptobrevin to allow the formation of the SNARE complex.
Figure 6 Hsc70 facilitates incorporation of SNAP-25 into the SNARE complex in vitro. SDS-PAGE of SNAP-25 taken from the aggregation reactions (Fig. 2) at 0 h and 64 h after the initiation, without (left) and with Hsc70 (right), and mixed with syntaxin and synaptobrevin for the time indicated below each SDS-PAGE. SNAP-25 is expressed and purified from E. coli; a minor amount of the bacterial Hsp70 homolog DnaK (∼70 kDa) may copurify with SNAP-25, explaining the presence of higher molecular weight bands, with its proteolysis potentially occurring during ∼64-h SNAP-25 aggregation reactions. For synaptobrevin, we attribute the higher molecular weight bands to incomplete cleavage of GST-tagged synaptobrevin.
The SNARE motifs were mixed in an equimolar ratio in the following order: synaptobrevin-2 (29–93), syntaxin-1A (191–253), and SNAP-25 taken from the aggregation reaction, in the presence of 1 M NaCl. The assembly reaction was incubated at 4 °C overnight while rotating. The SNARE motifs were concentrated using a 30-kDa molecular weight cutoff Amicon centrifugation filters and run on 4 to 20% gradient SDS-PAGE.

SNAP-25 [6] = test: Far-UV CD; assay type: physicochemical; settings: far-UV CD 200–250 nm, 22 °C (Fig. S1)
Protocol: SNAP-25 has four native cysteines that are palmitoylated upon interaction with the membrane. […] For all of our studies, the SNAP-25 CS mutant was used unless otherwise mentioned.
The far-UV CD spectra (200–250 nm) were recorded on a Jasco J-1500 Circular Dichroism Spectrophotometer at 22 °C. The SNAP-25 WT, SNAP-25, and mixture of SNAP-25 and Hsc70 were taken in a 1 mm path length quartz cuvette. Figures show the average of ten scans where the buffer baselines were subtracted. Data were plotted using software using the Origin (Pro) program (OriginLab Corp).

T1 sequence (P11142 whole entry): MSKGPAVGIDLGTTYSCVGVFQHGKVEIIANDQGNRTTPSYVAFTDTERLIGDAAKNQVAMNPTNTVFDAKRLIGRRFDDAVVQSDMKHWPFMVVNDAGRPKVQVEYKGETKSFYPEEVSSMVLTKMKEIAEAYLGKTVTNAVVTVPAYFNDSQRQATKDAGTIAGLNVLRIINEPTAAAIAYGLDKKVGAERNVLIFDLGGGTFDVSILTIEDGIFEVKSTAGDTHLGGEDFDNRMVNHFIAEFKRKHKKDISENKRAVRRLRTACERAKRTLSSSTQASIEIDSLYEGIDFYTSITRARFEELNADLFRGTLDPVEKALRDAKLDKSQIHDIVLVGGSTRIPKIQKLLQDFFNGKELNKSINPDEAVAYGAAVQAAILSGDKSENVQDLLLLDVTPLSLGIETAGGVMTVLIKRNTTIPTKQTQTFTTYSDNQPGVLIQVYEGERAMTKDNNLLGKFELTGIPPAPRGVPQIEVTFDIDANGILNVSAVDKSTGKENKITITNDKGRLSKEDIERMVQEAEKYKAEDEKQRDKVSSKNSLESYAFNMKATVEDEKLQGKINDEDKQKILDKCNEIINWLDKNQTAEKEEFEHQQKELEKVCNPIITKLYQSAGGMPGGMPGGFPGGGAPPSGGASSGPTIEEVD

## 70-kDa heat shock protein [Hsp70]
Hsc70 [1]
  basal ATPase rate: about 0.05 ± 0.009 mol Pi/mol protein

## SNC: SNAP-25 SNC fragment, SNCFR141–201
Hsc70 [2]
  competition with p5 peptide for binding to Hsc70: competed with p5 peptide for binding to Hsc70

## SNN: SNAP-25 SNN fragment, SNNFR 11–82
Hsc70 [2]
  competition with p5 peptide for binding to Hsc70: competed with p5 peptide for binding to Hsc70

## heat shock cognate 70 [Hsc70]
[3]; OD 360 nm (Fig. 2)
  aggregation of the chaperone alone: no aggregation
[3]; OD600 (Fig. S2A), Hsc70 5 μM, CSPa-J 5 μM, Apg2 0.5 μM
  aggregation of the chaperone alone: exhibit no aggregation
SNAP-25 [4]
  lag time of SNAP-25 aggregation in the presence of Hsc70: ~65 h
[5]
  SNARE complex formation by SNAP-25 taken at 0 h and 64 h of aggregation in the presence of Hsc70: can productively form a SNARE complex
SNAP-25 [6]
  conformational change upon Hsc70-SNAP-25 interaction: no significant conformational change
